{"source": "paper PMC6759063", "about": "(Oncogene, 2008)", "binders": {"B1": {"name": "14-3-3ζ (natural protein, human (endogenous in HK18), UniProt P63104 1-245, looked up)", "chain": "MDKNELVQKAKLAEQAERYDDMAACMKSVTEQGAELSNEERNLLSVAYKNVVGARRSSWRVVSSIEQKTEGAEKKQQMAREYREKIETELRDICNDVLSLLEKFLIPNASQAESKVFYLKMKGDYYRYLAEVAAGDDKKGIVDQSQQAYQEAFEISKKEMQPTHPIRLGLALNFSVFYYEILNSPEKACSLAKTAFDEAIAELDTLSEESYKDSTLIMQLLRDNLTLWTSDTQGDEAEAGEGGEN"}}, "target": "cyclin D1 (human (endogenous in HK18), UniProt P24385 1-295)", "sequence (P24385 whole entry)": "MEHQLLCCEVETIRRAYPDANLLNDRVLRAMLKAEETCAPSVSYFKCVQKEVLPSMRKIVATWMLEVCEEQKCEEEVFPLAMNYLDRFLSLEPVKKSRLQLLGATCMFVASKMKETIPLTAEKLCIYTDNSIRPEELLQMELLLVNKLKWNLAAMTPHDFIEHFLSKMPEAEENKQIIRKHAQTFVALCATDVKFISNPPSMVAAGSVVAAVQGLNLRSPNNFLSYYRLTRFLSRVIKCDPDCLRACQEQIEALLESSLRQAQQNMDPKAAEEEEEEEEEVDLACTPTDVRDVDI", "test": "co-IP", "data": [{"binder": "B1", "values": [{"measurement": "fold decrease of the co-precipitated complex after LDIR (densitometry)", "value": "~50", "unit": "times"}]}]}
